This is an account of results in US20250019432A1.

The experiment has as its target CD33 on U937 cells (UniProt P20138). Nature of the experiment: cell-based or functional assay.

Chain of CD33 on U937 cells (P20138 18-364 limits assumed): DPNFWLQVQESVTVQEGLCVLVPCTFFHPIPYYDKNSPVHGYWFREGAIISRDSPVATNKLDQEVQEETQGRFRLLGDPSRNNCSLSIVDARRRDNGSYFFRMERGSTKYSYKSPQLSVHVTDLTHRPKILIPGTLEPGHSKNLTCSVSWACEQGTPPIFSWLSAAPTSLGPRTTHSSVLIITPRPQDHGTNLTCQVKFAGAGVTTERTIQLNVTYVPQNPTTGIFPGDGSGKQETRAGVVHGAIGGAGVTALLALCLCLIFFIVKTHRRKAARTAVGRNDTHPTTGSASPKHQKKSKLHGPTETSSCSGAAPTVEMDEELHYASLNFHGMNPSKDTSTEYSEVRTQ

anti-CD33 antibody P67.6 showed a CD33 % surface expression, 0 min of 100%; a CD33 % surface expression, 15 min of 79%; a CD33 % surface expression, 30 min of 72%; a CD33 % surface expression, 45 min of 68%. This substance also registered a CD33 % surface expression, 90 min of 53%; a CD33 % surface expression, 120 min of 48%; an MFI of pH sensitive dye, CD33 complexes, 0 hours of 20.8; an MFI of pH sensitive dye, CD33 complexes, 4 hours of 26. The MFI of pH sensitive dye, CD33 complexes, 24 hours came to 31.9.
